Results as given in publication PMC9974451.

Target: His-importin 7 (Xenopus laevis) (Xenopus laevis)
Assay: differential scanning fluorimetry; His-tagged NTR at 0.5 μM in TPB with 2 mM DTT, His-NOSIP or Ubc9 titrated in 18 steps from 0.05 to 5 μM, 5x SYPRO Orange, 25 to 90 °C; Tm plotted against concentration, exponential fit

- Kd: 447 nM
B1: His-NOSIP (natural protein)
chain: MTRHGKNCTAGAVYTYHEKKKDTAASGYGTQNIRLSRDAVKDFDCCCLSLQPCHDPVVTPDGYLYEREAILEYILHQKKEIARQMKAYEKQRGTRREEQKELQRAASQDHVRGFLEKESAIVSRPLNPFTAKALSGTSPDDVQPGPSVGPPSKDKDKVLPSFWIPSLTPEAKATKLEKPSRTVTCPMSGKPLRMSDLTPVHFTPLDSSVDRVGLITRSERYVCAVTRDSLSNATPCAVLRPSGAVVTLECVEKLIRKDMVDPVTGDKLTDRDIIVLQRGGTGFAGSGVKLQAEKSRPVMQA
